Measured values: patent US20130209454A1

Experiments:
[1] = target: HIV-1 strain SC422661.8 envelope (gp120) (HIV-1); experiment: cell-based or functional assay
[2] = target: HIV-1 strain CAP45.2.00.G3 envelope (gp120) (HIV-1); experiment: cell-based or functional assay
[3] = target: HIV-1 strain AC10.0.29 envelope (gp120) (HIV-1); experiment: cell-based or functional assay
[4] = target: HIV-1 strain TRO.11 envelope (gp120) (HIV-1); experiment: cell-based or functional assay
[5] = target: HIV-1 strain CAP210.2.00.E8 envelope (gp120) (HIV-1); experiment: cell-based or functional assay
[6] = target: HIV-1 strain Du172.17 envelope (gp120) (HIV-1); experiment: cell-based or functional assay
[7] = target: HIV-1 Env of strain C2101.c01 (HIV-1); experiment: cell-based or functional assay
[8] = target: HIV-1 strain QH0692.42 envelope (gp120) (HIV-1); experiment: cell-based or functional assay
[9] = target: HIV-1 strain ZM214M.PL15 envelope (gp120) (HIV-1); experiment: cell-based or functional assay
[10] = target: HIV-1 Env of strain 3016.v5.c45 (HIV-1); experiment: cell-based or functional assay
[11] = target: HIV-1 strain T257-31 envelope (gp120) (HIV-1); experiment: cell-based or functional assay
[12] = target: Env of HIV-1 strain TRO.11 (HIV-1); experiment: cell-based or functional assay
[13] = target: Env of HIV-1 strain AC10.0.29 (HIV-1); experiment: cell-based or functional assay
[14] = target: Env of HIV-1 strain CAP210.2.00.E8 (HIV-1); experiment: cell-based or functional assay
[15] = target: Env of HIV-1 strain SC422661.8 (HIV-1); experiment: cell-based or functional assay
[16] = target: Env of HIV-1 strain CAP45.2.00.G3 (HIV-1); experiment: cell-based or functional assay
[17] = target: Env of HIV-1 strain Du172.17 (HIV-1); experiment: cell-based or functional assay
[18] = target: 93TH057 gp120 core (HIV-1); experiment: structure PDB 3NGB, AreaIMol, 1.4 Å probe
[19] = target: HIV-1 Env of strain CAP45.2.00.G3 (HIV-1); experiment: cell-based or functional assay
[20] = target: HIV-1 Env of strain SC422661.8 (HIV-1); experiment: cell-based or functional assay
[21] = target: HIV-1 Env of strain T257-31 (HIV-1); experiment: cell-based or functional assay
[22] = target: HIV-1 Env of strain ZM214M.PL15 (HIV-1); experiment: cell-based or functional assay
[23] = target: HIV-1 Env of strain AC10.0.29 (HIV-1); experiment: cell-based or functional assay
[24] = target: HIV-1 Env of strain TRO.11 (HIV-1); experiment: cell-based or functional assay
[25] = target: HIV-1 Env of strain QH0692.42 (HIV-1); experiment: cell-based or functional assay
[26] = target: gp120 (ZM135M.PL10a) of the CD4-gp120 complex structure (HIV-1); experiment: CD4-gp120 complex structure, AreaIMol, 1.4 Å probe
[27] = target: Q259.d2.17 gp120 core (HIV-1)
[28] = target: CAP244.2.00.D3 gp120 core (HIV-1)
[29] = target: 93TH057 gp120 core (HIV-1)

Chain of NIH45-46 Fab (C-terminal 6x-His tagged heavy chain, SPR) (VH): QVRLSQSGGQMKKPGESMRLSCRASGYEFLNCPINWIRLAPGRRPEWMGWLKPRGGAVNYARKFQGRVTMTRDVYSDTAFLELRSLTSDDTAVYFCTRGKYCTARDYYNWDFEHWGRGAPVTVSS
Chain of NIH45-46 Fab (C-terminal 6x-His tagged heavy chain, SPR) (V domain): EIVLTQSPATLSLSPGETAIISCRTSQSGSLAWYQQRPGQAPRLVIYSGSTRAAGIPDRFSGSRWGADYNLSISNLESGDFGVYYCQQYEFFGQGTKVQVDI

3BNC117 T54W IgG (antibody)
neutralization IC50 [1]: 0.07 µg/mL | neutralization IC50 [2]: 23 µg/mL | neutralization IC50 [3]: 2.8 µg/mL | neutralization IC50 [4]: 0.6 µg/mL | neutralization IC50 [5]: 2.8 µg/mL | neutralization IC50 [6]: 0.9 µg/mL

VRC01 IgG (antibody)
neutralization IC50 [1]: 0.2 µg/mL | neutralization IC50 [7]: 0.36 µg/mL | neutralization IC50 [2]: 1.8 µg/mL | neutralization IC50 [8]: 0.7 µg/mL | neutralization IC50 [3]: 0.8 µg/mL | neutralization IC50 [9]: 0.8 µg/mL | neutralization IC50 [4]: 0.5 µg/mL | neutralization IC50 [10]: 0.16 µg/mL | neutralization IC50 [11]: 1 µg/mL

3BNC60 T54G (antibody)
IC50 [12]: 0.0003 µg/mL | IC50 [13]: 0.623 µg/mL | IC50 [14]: 11.9 µg/mL | IC50 [15]: 0.01 µg/mL | IC50 [16]: > 50 µg/mL | IC50 [17]: 0.02 µg/mL

3BNC60 T54Q (antibody)
IC50 [12]: 0.006 µg/mL | IC50 [13]: 9.04 µg/mL | IC50 [14]: 7.4 µg/mL | IC50 [15]: 0.038 µg/mL | IC50 [16]: 6.66 µg/mL | IC50 [17]: 0.243 µg/mL

3BNC60 T54V (antibody)
IC50 [12]: 0.024 µg/mL | IC50 [13]: > 50 µg/mL | IC50 [14]: 42.8 µg/mL | IC50 [15]: 0.039 µg/mL | IC50 [16]: > 50 µg/mL | IC50 [17]: 7.36 µg/mL

3BNC60 T54P (antibody)
IC50 [12]: 0.048 µg/mL | IC50 [13]: > 50 µg/mL | IC50 [14]: > 50 µg/mL | IC50 [15]: 0.143 µg/mL | IC50 [16]: > 50 µg/mL | IC50 [17]: > 50 µg/mL

3BNC60 T54F (antibody)
IC50 [12]: 0.023 µg/mL | IC50 [14]: 3.4 µg/mL | IC50 [15]: 0.025 µg/mL | IC50 [17]: 2.2 µg/mL

VRC01 Fab (structure of VRC01-93TH057, PDB code 3NGB)
buried surface area on gp120, Inner domain & bridging sheet [18]: 157 Å^2 | buried surface area on gp120, Loop D + NAG [18]: 433 Å^2 | buried surface area on gp120, Outer domain exit loop [18]: 57 Å^2 | buried surface area on gp120, V5 [18]: 328 Å^2 | buried surface area on gp120, β-15/α-3 + NAG [18]: 208 Å^2 | buried surface area on gp120, β-24 [18]: 43 Å^2 | buried surface area, Interface on Fab or CD4 [18]: 1210 Å^2 | buried surface area, Total gp120 [18]: 1220 Å^2 | total buried surface area, light chain with gp120 [18]: 681 Å^2 | buried surface area, CDR3 ([18]; VRC01 heavy chain): 117 Å^2 | buried surface area, Interface on gp120 ([18]; VRC01 heavy chain): 882 Å^2 | buried surface area, Total Fab ([18]; VRC01 heavy chain): 892 Å^2 | buried surface area, CDR3 ([18]; VRC01 light chain): 165 Å^2 | buried surface area, Interface on gp120 ([18]; VRC01 light chain): 367 Å^2 | buried surface area, Total Fab ([18]; VRC01 light chain): 314 Å^2

3BNC60 T54I (antibody)
IC50 [12]: 0.027 µg/mL | IC50 [13]: > 50 µg/mL | IC50 [14]: > 50 µg/mL | IC50 [15]: 0.054 µg/mL | IC50 [16]: > 50 µg/mL | IC50 [17]: 21.8 µg/mL

3BNC60 T54A (antibody)
IC50 [12]: 0.003 µg/mL | IC50 [13]: 2.6 µg/mL | IC50 [14]: 0.1 µg/mL | IC50 [15]: 0.027 µg/mL | IC50 [16]: > 50 µg/mL | IC50 [17]: > 50 µg/mL

3BNC60 T54W IgG (antibody)
neutralization IC50 [1]: 0.1 µg/mL | neutralization IC50 [2]: 19 µg/mL | neutralization IC50 [3]: 3.1 µg/mL | neutralization IC50 [4]: 0.06 µg/mL | neutralization IC50 [5]: 5 µg/mL | neutralization IC50 [6]: 0.04 µg/mL

3BNC60 T54H (antibody)
IC50 [12]: 0.011 µg/mL | IC50 [13]: > 50 µg/mL | IC50 [14]: 1.6 µg/mL | IC50 [15]: 0.003 µg/mL | IC50 [16]: 6.64 µg/mL | IC50 [17]: 0.055 µg/mL

3BNC60 T54R (antibody)
IC50 [12]: 0.006 µg/mL | IC50 [13]: > 50 µg/mL | IC50 [14]: 5 µg/mL | IC50 [15]: 0.014 µg/mL | IC50 [16]: > 50 µg/mL | IC50 [17]: 2.15 µg/mL

3BNC60 T54W (antibody)
IC50 [12]: 0.021 µg/mL | IC50 [14]: 2.6 µg/mL | IC50 [15]: 0.031 µg/mL | IC50 [17]: 2.2 µg/mL

3BNC60 T54D (antibody)
IC50 [12]: 0.036 µg/mL | IC50 [13]: > 50 µg/mL | IC50 [14]: > 50 µg/mL | IC50 [15]: 0.556 µg/mL | IC50 [16]: > 50 µg/mL | IC50 [17]: > 50 µg/mL

3BNC60 T54S (antibody)
IC50 [12]: 0.02 µg/mL | IC50 [13]: > 50 µg/mL | IC50 [14]: 14.7 µg/mL | IC50 [15]: 0.036 µg/mL | IC50 [16]: 41.7 µg/mL | IC50 [17]: 0.92 µg/mL

3BNC60 T54E (antibody)
IC50 [12]: 0.004 µg/mL | IC50 [13]: 2.92 µg/mL | IC50 [14]: > 50 µg/mL | IC50 [15]: 0.075 µg/mL | IC50 [16]: > 50 µg/mL | IC50 [17]: > 50 µg/mL

3BNC60 T54K (antibody)
IC50 [12]: 0.029 µg/mL | IC50 [13]: > 50 µg/mL | IC50 [14]: > 50 µg/mL | IC50 [15]: 0.024 µg/mL | IC50 [16]: > 50 µg/mL | IC50 [17]: > 50 µg/mL

NIH45-46 Y99dA IgG (antibody)
neutralization IC50 [19]: > 50 µg/mL | neutralization IC50 [20]: 0.08 µg/mL | neutralization IC50 [21]: 2.4 µg/mL | neutralization IC50 [22]: 1.1 µg/mL | neutralization IC50 [23]: 4.4 µg/mL | neutralization IC50 [24]: > 50 µg/mL | neutralization IC50 [25]: 2.1 µg/mL

CD4 (from UniProt P01730 26-208) (receptor)
buried surface area on gp120, Inner domain & bridging sheet [26]: 400 Å^2 | buried surface area on gp120, Loop D + NAG [26]: 136 Å^2 | buried surface area on gp120, Outer domain exit loop [26]: 97 Å^2 | buried surface area on gp120, V5 [26]: 155 Å^2 | buried surface area on gp120, β-15/α-3 + NAG [26]: 263 Å^2 | buried surface area on gp120, β-24 [26]: 14 Å^2 | buried surface area, Interface on Fab or CD4 [26]: 1060 Å^2 | buried surface area, Total gp120 [26]: 973 Å^2

NIH45-46 Fab (C-terminal 6x-His tagged heavy chain, SPR)
Kd [27]: 190 nM | koff [27]: 0.01 s⁻¹ | kon [27]: 55000 M⁻¹ s⁻¹ | Kd [28]: 97 nM | koff [28]: 0.0067 s⁻¹ | kon [28]: 69000 M⁻¹ s⁻¹ | Kd [29]: 160 nM | koff [29]: 0.0048 s⁻¹ | kon [29]: 31000 M⁻¹ s⁻¹

3BNC60 T54Y (antibody)
IC50 [12]: 0.012 µg/mL | IC50 [14]: 2.9 µg/mL | IC50 [15]: 0.02 µg/mL | IC50 [17]: 2.2 µg/mL

3BNC60 T54L (antibody)
IC50 [12]: 0.019 µg/mL | IC50 [13]: > 50 µg/mL | IC50 [14]: 30.7 µg/mL | IC50 [15]: 0.034 µg/mL | IC50 [16]: > 50 µg/mL | IC50 [17]: 3.59 µg/mL

3BNC60 T54M (antibody)
IC50 [12]: 0.019 µg/mL | IC50 [13]: > 50 µg/mL | IC50 [14]: 25 µg/mL | IC50 [15]: 0.032 µg/mL | IC50 [16]: > 50 µg/mL | IC50 [17]: 1.43 µg/mL

VRC01 heavy chain paired with the NIH45-46 light chain (IgG) (antibody)
neutralization IC50 [1]: 0.4 µg/mL | neutralization IC50 [2]: > 50 µg/mL | neutralization IC50 [8]: 1.2 µg/mL | neutralization IC50 [3]: 4.5 µg/mL | neutralization IC50 [9]: 1.8 µg/mL | neutralization IC50 [4]: 24 µg/mL | neutralization IC50 [11]: 15 µg/mL

3BNC60 T54N (antibody)
IC50 [12]: 0.008 µg/mL | IC50 [13]: > 50 µg/mL | IC50 [14]: 16.3 µg/mL | IC50 [15]: 0.025 µg/mL | IC50 [16]: 16.7 µg/mL | IC50 [17]: 0.662 µg/mL
